# No end group written: not given here.
# B1: capsule 1 (microcapsule to which the peptide of SEQ ID NO: 1 was linked) (peptide)
# peptide: AKST
# modifications: not fully specified (N-terminus); printed as Ala-Lys-Ser-Thr; also: N-terminus amide-linked to microcapsule surface carboxyl (EDAC/NHS)
# B2: capsule 1-6 (peptide)
# peptide: AKST
# modifications: not fully specified (N-terminus); printed as Ala-Lys-Ser-Thr; also: N-terminus amide-linked to microcapsule surface carboxyl (EDAC/NHS)
# B3: capsule 2 (microcapsule to which the peptide of SEQ ID NO: 2 was linked) (peptide)
# peptide: EGHKIFPSWY
# modifications: not fully specified (N-terminus); printed as Glu-Gly-His-Lys-Ile-Phe-Pro-Ser-Trp-Tyr; also: N-terminus amide-linked to microcapsule surface carboxyl (EDAC/NHS)
# B4: capsule 2-1 (peptide)
# peptide: EGHKIFPSWY
# modifications: not fully specified (N-terminus); printed as Glu-Gly-His-Lys-Ile-Phe-Pro-Ser-Trp-Tyr; also: N-terminus amide-linked to microcapsule surface carboxyl (EDAC/NHS)
# B5: capsule 2-2 (peptide)
# peptide: EGHKIFPSWY
# modifications: not fully specified (N-terminus); printed as Glu-Gly-His-Lys-Ile-Phe-Pro-Ser-Trp-Tyr; also: N-terminus amide-linked to microcapsule surface carboxyl (EDAC/NHS)
# B6: capsule 2-4 (peptide)
# peptide: EGHKIFPSWY
# modifications: not fully specified (N-terminus); printed as Glu-Gly-His-Lys-Ile-Phe-Pro-Ser-Trp-Tyr; also: N-terminus linked to microcapsule surface carboxyl (EDAC/NHS)
# B7: capsule 2-5 (peptide)
# peptide: EGHKIFPSWY
# modifications: not fully specified (N-terminus); printed as Glu-Gly-His-Lys-Ile-Phe-Pro-Ser-Trp-Tyr; also: N-terminus linked to microcapsule surface carboxyl (EDAC/NHS)
# B8: capsule 2-6 (peptide)
# peptide: EGHKIFPSWY
# modifications: not fully specified (N-terminus); printed as Glu-Gly-His-Lys-Ile-Phe-Pro-Ser-Trp-Tyr; also: N-terminus linked to microcapsule surface carboxyl (EDAC/NHS)
# B9: capsule 3 (microcapsule to which the peptide of SEQ ID NO: 3 was linked) (peptide)
# peptide: ADGSP
# modifications: not fully specified (N-terminus); printed as Ala-Asp-Gly-Ser-Pro; also: N-terminus linked to microcapsule surface carboxyl (EDAC/NHS)
# B10: capsule 1-1 (peptide)
# peptide: AKST
# modifications: not fully specified (N-terminus); printed as Ala-Lys-Ser-Thr; also: N-terminus amide-linked to microcapsule surface carboxyl (EDAC/NHS)
# B11: capsule 1-2 (peptide)
# peptide: AKST
# modifications: not fully specified (N-terminus); printed as Ala-Lys-Ser-Thr; also: N-terminus amide-linked to microcapsule surface carboxyl (EDAC/NHS)
# B12: capsule 1-4 (peptide)
# peptide: AKST
# modifications: not fully specified (N-terminus); printed as Ala-Lys-Ser-Thr; also: N-terminus amide-linked to microcapsule surface carboxyl (EDAC/NHS)
# B13: capsule 1-5 (peptide)
# peptide: AKST
# modifications: not fully specified (N-terminus); printed as Ala-Lys-Ser-Thr; also: N-terminus amide-linked to microcapsule surface carboxyl (EDAC/NHS)
# What was measured:
# [1] = biological target: fibroblast growth factor receptor on fibroblasts; assay: flow cytometry (FACS), fluorescence immunoassay, on fibroblasts
# [2] = biological target: fibroblast growth factor receptor on fibroblasts; assay: binding to fibroblasts as in Example 3-1; peptide density 2 peptides/µm^2; reference set to 10
# [3] = biological target: fibroblast growth factor receptor on fibroblasts; assay: capsule and fibroblasts cultured together at 4° C. for 1 hour
# [4] = biological target: fibroblast growth factor receptor on fibroblasts; assay: binding to fibroblasts as in Example 3-1; peptide density 10.5 peptides/µm^2
# [5] = biological target: melanocortin receptor on melanocytes; assay: binding of alpha-MSH to melanocytes after treatment with 10 µM capsule 2; competitor alpha-MSH
# [6] = biological target: melanocortin receptor on melanocytes; assay: flow cytometry (FACS), fluorescence immunoassay, on melanocytes
# [7] = biological target: melanocortin receptor on melanocytes; assay: interference with alpha-MSH binding to melanocytes as in Example 4-1; peptide density 2 peptides/µm^2; reference set to 10
# [8] = biological target: melanocortin receptor on melanocytes; assay: interference with alpha-MSH binding to melanocytes as in Example 4-1; peptide density 0.05 peptides/µm^2
# [9] = biological target: melanocortin receptor on melanocytes; assay: interference with alpha-MSH binding to melanocytes as in Example 4-1; peptide density 0.1 peptides/µm^2
# [10] = biological target: melanocortin receptor on melanocytes; assay: interference with alpha-MSH binding to melanocytes as in Example 4-1; peptide density 7 peptides/µm^2
# [11] = biological target: melanocortin receptor on melanocytes; assay: interference with alpha-MSH binding to melanocytes as in Example 4-1; peptide density 10 peptides/µm^2
# [12] = biological target: melanocortin receptor on melanocytes; assay: interference with alpha-MSH binding to melanocytes as in Example 4-1; peptide density 10.5 peptides/µm^2
# [13] = biological target: integrin receptor (beta-1 family) on keratinocytes; assay: flow cytometry (FACS), fluorescence immunoassay, on keratinocytes
# [14] = biological target: fibroblast growth factor receptor on fibroblasts; assay: binding to fibroblasts as in Example 3-1; peptide density 0.05 peptides/µm^2
# [15] = biological target: fibroblast growth factor receptor on fibroblasts; assay: binding to fibroblasts as in Example 3-1; peptide density 0.1 peptides/µm^2
# [16] = biological target: fibroblast growth factor receptor on fibroblasts; assay: binding to fibroblasts as in Example 3-1; peptide density 7 peptides/µm^2
# [17] = biological target: fibroblast growth factor receptor on fibroblasts; assay: binding to fibroblasts as in Example 3-1; peptide density 10 peptides/µm^2
binder,measurement,setting,value
B1,binding rate,[1],75%
same,"binding affinity to fibroblasts, relative (capsule 1-3 = 10) (relative to capsule 1-3 = 10)",[2],10
same,fold binding affinity against the microcapsule to which the peptide was not linked,[3],4 times
B2,"binding affinity to fibroblasts, relative (capsule 1-3 = 10) (relative to capsule 1-3 = 10)",[4],3.5
B3,percent reduction of the binding of melanocyte and alpha-MSH,[5],95%
same,binding affinity (binding rate),[6],70%
same,"binding interference of melanocyte and alpha-MSH, relative (capsule 2-3 = 10) (relative to capsule 2-3 = 10)",[7],10
B4,"binding interference of melanocyte and alpha-MSH, relative (capsule 2-3 = 10) (relative to capsule 2-3 = 10)",[8],3
B5,"binding interference of melanocyte and alpha-MSH, relative (capsule 2-3 = 10) (relative to capsule 2-3 = 10)",[9],7.5
B6,"binding interference of melanocyte and alpha-MSH, relative (capsule 2-3 = 10) (relative to capsule 2-3 = 10)",[10],10
B7,"binding interference of melanocyte and alpha-MSH, relative (capsule 2-3 = 10) (relative to capsule 2-3 = 10)",[11],7
B8,"binding interference of melanocyte and alpha-MSH, relative (capsule 2-3 = 10) (relative to capsule 2-3 = 10)",[12],3
B9,binding rate,[13],85%
B10,"binding affinity to fibroblasts, relative (capsule 1-3 = 10) (relative to capsule 1-3 = 10)",[14],2
B11,"binding affinity to fibroblasts, relative (capsule 1-3 = 10) (relative to capsule 1-3 = 10)",[15],7
B12,"binding affinity to fibroblasts, relative (capsule 1-3 = 10) (relative to capsule 1-3 = 10)",[16],9.5
B13,"binding affinity to fibroblasts, relative (capsule 1-3 = 10) (relative to capsule 1-3 = 10)",[17],7.5

# Source: patent US20200190143A1
